Data on one protein can be found in ChEMBL document CHEMBL1123197, “(beta-Chloro-alpha-aminoethyl)phosphonic acids as inhibitors of alanine racemase and D-alanine:D-alanine ligase” (J Med Chem, 1986).

By Km is commonly meant the concentration of substrate that gives half-maximal velocity.

Substrate in data set [1]: NC(CCl)P(=O)(O)O
The note with it: Pseudomonas aeruginosa.
Description: Km for Alanine racemase from Pseudomonas aeruginosa

Substrate in data set [2]: C[C@H](N)C(=O)O
Description: Km value for Alanine racemase from Pseudomonas aeruginosa.

B1: Alanine racemase, biosynthetic (Escherichia coli K-12), P0A6B4 (protein)
chain: MQAATVVINRRALRHNLQRLRELAPASKMVAVVKANAYGHGLLETARTLPDADAFGVARLEEALRLRAGGITKPVLLLEGFFDARDLPTISAQHFHTAVHNEEQLAALEEASLDEPVTVWMKLDTGMHRLGVRPEQAEAFYHRLTQCKNVRQPVNIVSHFARADEPKCGATEKQLAIFNTFCEGKPGQRSIAASGGILLWPQSHFDWVRPGIILYGVSPLEDRSTGADFGCQPVMSLTSSLIAVREHKAGEPVGYGGTWVSERDTRLGVVAMGYGDGYPRAAPSGTPVLVNGREVPIVGRVAMDMICVDLGPQAQDKAGDPVILWGEGLPVERIAEMTKVSAYELITRLTSRVAMKYVD
As for B1, the results for the Km in data set [1] and in data set [2] were 8 mM and 14.2 mM, respectively.
